In patent US20220372577, “ANALYTE DETECTION METHOD” (IMPERIAL COLLEGE OF SCIENCE, TECHNOLOGY AND MEDICINE, published 2022):

Target: alpha-thrombin (UniProt P00734;P00734 P00734:328-363,P00734:364-622)
Assay: binding in 5% human serum, 0.1-100 nM thrombin, 30 pM MB-Carrier; comparable to 0.1 M KCl

B1: TBA-embedded molecular beacon on lambda-DNA carrier (MB-Carrier) (structured_DNA)
DNA: AGGTCGCCGCCCTCCAACGGTTGGTGTGGTTGG
modifications: internal FAM on T13; 3' DABCYL
binding result: binds
